Reference: paper PMC5374532, “Rational mutagenesis by engineering disulphide bonds improves Kluyveromyces lactis beta-galactosidase for high-temperature industrial applications” (Scientific Reports, 2017)

Substrate: O=[N+]([O-])c1ccc(O[C@@H]2O[C@H](CO)[C@H](O)[C@H](O)[C@H]2O)cc1
Experiment: purified protein
Format: biochemical, Kluyveromyces lactis
Settings: Z buffer (100 mM Na2HPO4, 40 mM NaH2PO4, 10 mM KCl, 1.6 mM MgSO4), 30 °C, 0.3 μg/mL enzyme, substrate 0-20 mM

B1: Kl-β-Gal (Kluyveromyces lactis β-galactosidase) (Kluyveromyces lactis NRRL Y-1140) (protein)
chain: SCLIPENLRNPKKVHENRLPTRAYYYDQDIFESLNGPWAFALFDAPLDAPDAKNLDWETAKKWSTISVPSHWELQEDWKYGKPIYTNVQYPIPIDIPNPPTVNPTGVYARTFELDSKSIESFEHRLRFEGVDNCYELYVNGQYVGFNKGSRNGAEFDIQKYVSEGENLVVVKVFKWSDSTYIEDQDQWWLSGIYRDVSLLKLPKKAHIEDVRVTTTFVDSQYQDAELSVKVDVQGSSYDHINFTLYEPEDGSKVYDASSLLNEENGNTTFSTKEFISFSTKKNEETAFKINVKAPEHWTAENPTLYKYQLDLIGSDGSVIQSIKHHVGFRQVELKDGNITVNGKDILFRGVNRHDHHPRFGRAVPLDFVVRDLILMKKFNINAVRNSHYPNHPKVYDLFDKLGFWVIDEADLETHGVQEPFNRHTNLEAEYPDTKNKLYDVNAHYLSDNPEYEVAYLDRASQLVLRDVNHPSIIIWSLGNEACYGRNHKAMYKLIKQLDPTRLVHYEGDLNALSADIFSFMYPTFEIMERWRKNHTDENGKFEKPLILCEYGHAMGNGPGSLKEYQELFYKEKFYQGGFIWEWANHGIEFEDVSTADGKLHKAYAYGGDFKEEVHDGVFIMDGLCNSEHNPTPGLVEYKKVIEPVHIKIAHGSVTITNKHDFITTDHLLFIDKDTGKTIDVPSLKPEESVTIPSDTTYVVAVLKDDAGVLKAGHEIAWGQAELPLKVPDFVTETAEKAAKINDGKRYVSVESSGLHFILDKLLGKIESLKVKGKEISSKFEGSSITFWRPPTNNDEPRDFKNWKKYNIDLMKQNIHGVSVEKGSNGSLAVVTVNSRISPVVFYYGFETVQKYTIFANKINLNTSMKLTGEYQPPDFPRVGYEFWLGDSYESFEWLGRGPGESYPDKKESQRFGLYDSKDVEEFVYDYPQENGNHTDTHFLNIKFEGAGKLSIFQKEKPFNFKISDEYGVDEAAHACDVKRYGRHYLRLDHAIHGVGSEACGPAVLDQYRLKAQDFNFEFDLAFE
notes: full length, N-terminal FLAG tag kept (YEpFLAG vector); monomer 118 kDa; active as dimer and tetramer
Km: 2150 ± 520 µM | Vmax: 71.9 µmol/min/mg
